Target: the molecule itself
Assay: AUC

B1: SARS 3C-like proteinase (SARS-3CLpro), wild type (enzyme)
chain: SGFRKMAFPSGKVEGCMVQVTCGTTTLNGLWLDDTVYCPRHVICTAEDMLNPNYEDLLIRKSNHSFLVQAGNVQLRVIGHSMQNCLLRLKVDTSNPKTPKYKFVRIQPGQTFSVLACYNGSPSGVYQCAMRPNHTIKGSFLNGSCGSVGFNIDYDCVSFCYMHHMELPTGVHAGTDLEGKFYGPFVDRQTAQAAGTDTTITLNVLAWLYAAVINGDRWFLNRFTTTLNDFNLVAMKYNYEPLTQDHVDILGPLSAQTGIAVLDMCAALKELLQNGMNGRTILGSTILEDEFTPFDVVRQCSGVTFQ
Q: For B1, which “stoichiometry N” value is on record?
A: 2

— PMC4754693 (Scientific Reports, 2016)
